Source: patent US20100215631A1, “ANTI-INFLAMMATORY COMPOSITION COMPRISING GLYCINE AND LACTOFERRIN AND THE USE THEREOF” (priority 2006, published 2010)

What was measured:
Format in all cases: in vivo
Balb/C mice [1] = assay: Zymosan-induced ear swelling in an inflammatory mouse model (Example 1); settings: daily gavage 0.1 mg lactoferrin and/or 50 mg glycine, versus non-supplemented mice
Procedure: Balb/C mice (8 weeks of age, Charles River, Maastricht, The Netherlands) were randomly assigned two control and three test groups and supplemented daily for three days with 0.1 mg lactoferrin (DMV, Veghel, The Netherlands), 50 mg glycine (Sigma, Zwijndrecht, The Netherlands) or a combination of both components (test groups 3, 4 and 5 respectively) or vehicle (control groups 1 and 2) was administered by gavage. At day two of the supplementation ear thickness was measured using a micrometer (Mitutoyo Digimatic, Veenendaal, The Netherlands) Subsequently 25 μl 0.5% zymosan (Sigma) in PBS (group 2-5) or vehicle (group 1) was injected subcutaneously in both ears. Ear thickness was measured 3, 6 and 24 hours (example 1) after injection after which the animals were sacrificed.
In mice injected in the ear with zymosan, lactoferrin (LF) and glycine (Gly) supplemented mice show a highest decrease in ear swelling when compared to non-supplemented mice, see Table 1. A clear synergistic effect of LF and Gly is observed.

TNF-α producing cells = assay: Ex-vivo ELISpot of TNF-α producing spleen cells from supplemented mice with zymosan-induced ear inflammation (Example 2); settings: 1 μg/ml LPS, after three days of oral supplementation
Procedure: The spleen was removed and pushed through a cell strainer. Red blood cell lysis was performed in 5 ml of could lysis buffer (4.15 g NH4Cl, 0.5 g KHCO3 and 18.6 mg Na2EDTA in 1 liter water at pH 7,3) for 5 minutes. Cells were washed twice in could RPMI (Invitrogen, Merelbeke, Belgium) and after centrifugation diluted to a concentration of 1.10^7 cells/ml. TNF-α producing cells were detected by ELISpot assay in the absence or presence of 1 μg/ml lipopolysaccharide (Sigma) (example 2).
Spleen cells were collected from mice with a zymosan-induced inflammation in the ear after three days of oral supplementation with water (=control), lactoferrin (LF), glycine or a combination of LF and glycine. The number of TNF-α producing cells was determined using an ELISpot assay. LF and glycine inhibit the LPS stimulated number of TNF producing cells by 92% and 97% respectively (back to not zymosan treated control levels). The combination of glycine and lactoferrin inhibited the number of TNF-α positive cells 50% below the […] injected control. This unexpected high rate of inhibition makes the combination of glycine with lactoferrin an excellent choice for the treatment of inflammatory diseases.

Balb/C mice [2] = assay: Dose response of lactoferrin in zymosan-induced ear swelling mouse model (Example 3)

B1: lactoferrin (protein, UniProt P24627 20-708, looked up)
Lactotransferrin: APRKNVRWCTISQPEWFKCRRWQWRMKKLGAPSITCVRRAFALECIRAIAEKKADAVTLDGGMVFEAGRDPYKLRPVAAEIYGTKESPQTHYYAVAVVKKGSNFQLDQLQGRKSCHTGLGRSAGWIIPMGILRPYLSWTESLEPLQGAVAKFFSASCVPCIDRQAYPNLCQLCKGEGENQCACSSREPYFGYSGAFKCLQDGAGDVAFVKETTVFENLPEKADRDQYELLCLNNSRAPVDAFKECHLAQVPSHAVVARSVDGKEDLIWKLLSKAQEKFGKNKSRSFQLFGSPPGQRDLLFKDSALGFLRIPSKVDSALYLGSRYLTTLKNLRETAEEVKARYTRVVWCAVGPEEQKKCQQWSQQSGQNVTCATASTTDDCIVLVLKGEADALNLDGGYIYTAGKCGLVPVLAENRKSSKHSSLDCVLRPTEGYLAVAVVKKANEGLTWNSLKDKKSCHTAVDRTAGWNIPMGLIVNQTGSCAFDEFFSQSCAPGADPKSRLCALCAGDDQGLDKCVPNSKEKYYGYTGAFRCLAEDVGDVAFVKNDTVWENTNGESTADWAKNLNREDFRLLCLDGTRKPVTEAQSCHLAVAPNHAVVSRSDRAAHVKQVLLHQQALFGKNGKNCPDKFCLFKSETKNLLFNDNTECLAKLGGRPTYEEYLGTEYVTAIANLKKCSTSPLLEACAFLTR
notes: globular multifunctional protein of the transferrin family (DMV, Veghel)
Decrease in ear swelling (Balb/C mice [1]; 3 hrs after zymosan injection in ears): 39 ± 12
Decrease in ear swelling (Balb/C mice [1]; 6 hrs after zymosan injection in ears): 53 ± 17
Inhibition of the LPS stimulated number of TNF producing cells (TNF-α producing cells): 92%
swelling (Balb/C mice [2]; 0.1 mg LF daily by gavage, time 1 hr): 78
swelling (Balb/C mice [2]; 0.1 mg LF daily by gavage, time 2 hr): 108
swelling (Balb/C mice [2]; 0.1 mg LF daily by gavage, time 4 hr): 109
swelling (Balb/C mice [2]; 1 mg LF daily by gavage, time 1 hr): 73
swelling (Balb/C mice [2]; 1 mg LF daily by gavage, time 2 hr): 105
swelling (Balb/C mice [2]; 1 mg LF daily by gavage, time 4 hr): 121
swelling (Balb/C mice [2]; 5 mg LF daily by gavage, time 1 hr): 99
swelling (Balb/C mice [2]; 5 mg LF daily by gavage, time 2 hr): 153
swelling (Balb/C mice [2]; 5 mg LF daily by gavage, time 4 hr): 204
Optimal dose (Balb/C mice [2]; mouse, daily gavage, higher than 0): less than 5 mg
